B1: ALDH2 (mitochondrial aldehyde dehydrogenase) (Homo sapiens) (protein)
chain: SAAATQAVPAPNQQPEVFCNQIFINNEWHDAVSRKTFPTVNPSTGEVICQVAEGDKEDVDKAVKAARAAFQLGSPWRRMDASHRGRLLNRLADLIERDRTYLAALETLDNGKPYVISYLVDLDMVLKCLRYYAGWADKYHGKTIPIDGDFFSYTRHEPVGVCGQIIPWNFPLLMQAWKLGPALATGNVVVMKVAEQTPLTALYVANLIKEAGFPPGVVNIVPGFGPTAGAAIASHEDVDKVAFTGSTEIGRVIQVAAGSSNLKRVTLELGGKSPNIIMSDADMDWAVEQAHFALFFNQGQCCCAGSRTFVQEDIYDEFVERSVARAKSRVVGNPFDSKTEQGPQVDETQFKKILGYINTGKQEGAKLLCGGGIAADRGYFIQPTVFGDVQDGMTIAKEEIFGPVMQILKFKTIEEVVGRANNSTYGLAAAVFTKDLDKANYLSQALQAGTVWVNCYDVFGAQSPFGGYKMSGSGRELGEYGLQAYTEVKTVTVKVPQKNS
B2: ALDH1 (cytosolic aldehyde dehydrogenase, ALDH1A1) (Homo sapiens) (protein)
chain: SSSGTPDLPVLLTDLKIQYTKIFINNEWHDSVSGKKFPVFNPATEEELCQVEEGDKEDVDKAVKAARQAFQIGSPWRTMDASERGRLLYKLADLIERDRLLLATMESMNGGKLYSNAYLNDLAGCIKTLRYCAGWADKIQGRTIPIDGNFFTYTRHEPIGVCGQIIPWNFPLVMLIWKIGPALSCGNTVVVKPAEQTPLTALHVASLIKEAGFPPGVVNIVPGYGPTAGAAISSHMDIDKVAFTGSTEVGKLIKEAAGKSNLKRVTLELGGKSPCIVLADADLDNAVEFAHHGVFYHQGQCCIAASRIFVEESIYDEFVRRSVERAKKYILGNPLTPGVTQGPQIDKEQYDKILDLIESGKKEGAKLECGGGPWGNKGYFVQPTVFSNVTDEMRIAKEEIFGPVQQIMKFKSLDDVIKRANNTFYGLSAGVFTKDIDKAITISSALQAGTVWVNCYGVVSAQCPFGGFKMSGNGRELGEYGFHEYTEVKTVTVKISQKNS

Experiments:
purified protein [1] = substrate: CC=O; experiment: purified protein; format: biochemical, Homo sapiens; settings: NAD+
purified protein [2] = substrate: CC(=O)Oc1ccc([N+](=O)[O-])cc1; experiment: purified protein

Row | Protein | Km (purified protein [1]) | Vmax (purified protein [1]) | Km (purified protein [2]) | Vmax (purified protein [2])
1 | B1 | 0.33 ± 0.005 µM | 4 ± 0.03 µmol/min/mg | 0.18 ± 0.01 µM | 0.21 µmol/min/mg
2 | B2 | 200 ± 14 µM | 1.06 ± 0.02 µmol/min/mg | 0.69 ± 0.03 µM | 0.155 µmol/min/mg

Reference: paper PMC2440601
